Results published in the supplement of paper PMC10567573.

B1: ZNF511 (parent)
chain: AAPFRFVARPVRFPREHQFFEDGD
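Also: lentivirally expressed fusions sorted by FACS into six bins by GFP to DsRed ratio, PSI derived from sequencing read proportions per bin multiplied by bin number.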

Variants of: B1
Assay: protein stability index of a GFP-peptide fusion (GPS, HEK-293T) (PSI 1-6); higher = more stable
Settings: c terminus: a fixed tail appended
Variant AAPFRFVARPLRFPREHQFFEDGD [V11L] has a protein stability index of 2.02. Variant AAPFRFVARPVRFPREHCFFEDGD [Q18C] has a protein stability index of 1.64. In the case of AAPFRFVARPVRFPRECQFFEDGD [H17C], the protein stability index is reported as 2.66. For AAPFRFVARPVLFPREHQFFEDGD [R12L], the protein stability index was 2.13. With AANFRFVARPVRFPREHQFFEDGD [P3N] the protein stability index was 2.04. In the case of AAPFRFVARPVRFPREHQIFEDGD [F19I], the protein stability index is reported as 1.87. Variant AAVFRFVARPVRFPREHQFFEDGD [P3V] has a protein stability index of 1.53. For AQPFRFVARPVRFPREHQFFEDGD [A2Q], the protein stability index was 2.1. In the case of AAPFRFVARPVRFGREHQFFEDGD [P14G], the protein stability index is reported as 1.76. For AAPFRFVARPVRFPREHQEFEDGD [F19E], the protein stability index was 2.61. For AAPFRFVAGPVRFPREHQFFEDGD [R9G], the protein stability index was 2.41. With AAPFRFVARPVYFPREHQFFEDGD [R12Y] the protein stability index was 1.74. AAPKRFVARPVRFPREHQFFEDGD [F4K] showed a protein stability index of 4.41. Variant AAPFRFVARVVRFPREHQFFEDGD [P10V] has a protein stability index of 2.06. QAPFRFVARPVRFPREHQFFEDGD [A1Q] gave a protein stability index of 2.61. With AAPFRFVARPVRFPREHQFFPDGD [E21P] the protein stability index was 2.45. AAPFRFVARPVRFPRDHQFFEDGD [E16D] showed a protein stability index of 1.98. AAPFRFVARPVRFPREHQTFEDGD [F19T] gave a protein stability index of 2.81. AAPFRAVARPVRFPREHQFFEDGD [F6A] gave a protein stability index of 4.3. Work on AAPFRFVARPVRFPREYQFFEDGD [H17Y] yielded a protein stability index of 2.11. In the case of AAPFRFPARPVRFPREHQFFEDGD [V7P], the protein stability index is reported as 4.46. In the case of AAPFRFVARPVRFPREHNFFEDGD [Q18N], the protein stability index is reported as 2.33. With AAPFRFVARPVRWPREHQFFEDGD [F13W] the protein stability index was 2.33. Work on AAPFRFVARPVRFPQEHQFFEDGD [R15Q] yielded a protein stability index of 2.51. Variant AAPFRFVARPVRFPREHQFMEDGD [F20M] has a protein stability index of 2.49. For AAPFRFSARPVRFPREHQFFEDGD [V7S], the protein stability index was 3.76. For AAPFRFVARPVRFPRRHQFFEDGD [E16R], the protein stability index was 2.32. AAPFYFVARPVRFPREHQFFEDGD [R5Y] showed a protein stability index of 2.15. AAPFRFDARPVRFPREHQFFEDGD [V7D] showed a protein stability index of 3.73. With AAPFRFVARPVRVPREHQFFEDGD [F13V] the protein stability index was 3.13. In the case of AAPFRFVARPVRFPREHQFFQDGD [E21Q], the protein stability index is reported as 2. AAPPRFVARPVRFPREHQFFEDGD [F4P] gave a protein stability index of 4.84. Variant AAPFRFVARPVRFPREFQFFEDGD [H17F] has a protein stability index of 1.73. Variant AAPFRFVARPVIFPREHQFFEDGD [R12I] has a protein stability index of 2.97. With AAPFRFVARPVRFPREHQWFEDGD [F19W] the protein stability index was 2.04. With AAPFRFVARPVRFPREHQYFEDGD [F19Y] the protein stability index was 2.57. Variant AAPFRFVARPVRFPREHQFYEDGD [F20Y] has a protein stability index of 2.6. For AAPFRFVARPVRFPREHQVFEDGD [F19V], the protein stability index was 2.11. In the case of AHPFRFVARPVRFPREHQFFEDGD [A2H], the protein stability index is reported as 2.48. AAPFRFVARPVRFPREHQFFEDGP [D24P] showed a protein stability index of 2.1. Variant AAPFRFVPRPVRFPREHQFFEDGD [A8P] has a protein stability index of 2.27. In the case of AAPFRFVARPVRFPREHQFFEVGD [D22V], the protein stability index is reported as 2.65. Work on AAPFRFVANPVRFPREHQFFEDGD [R9N] yielded a protein stability index of 1.38. With AAPFRFVARPVRFPREPQFFEDGD [H17P] the protein stability index was 1.92. Work on AAPFRFVARPVRFPNEHQFFEDGD [R15N] yielded a protein stability index of 1.62. Variant ADPFRFVARPVRFPREHQFFEDGD [A2D] has a protein stability index of 3.25. For AAPFRFVARFVRFPREHQFFEDGD [P10F], the protein stability index was 2.44. With AAPFRFVARPVRFPREHQFFEDED [G23E] the protein stability index was 2.25. Work on AAPFRFVARPVRFPREHQFFMDGD [E21M] yielded a protein stability index of 1.76. AAPFDFVARPVRFPREHQFFEDGD [R5D] gave a protein stability index of 4.8. For AAPFRFVARPVRFPREHQFFNDGD [E21N], the protein stability index was 2.29. In the case of AAPFRFVARPVRFHREHQFFEDGD [P14H], the protein stability index is reported as 1.69. Work on AAFFRFVARPVRFPREHQFFEDGD [P3F] yielded a protein stability index of 1.53. Work on AAPFRFVARPVPFPREHQFFEDGD [R12P] yielded a protein stability index of 2.22. In the case of AAPFRFVARPVRFPAEHQFFEDGD [R15A], the protein stability index is reported as 1.94. AAPFRFVARPVRFPREHQRFEDGD [F19R] gave a protein stability index of 2.4. AAPFRFVARPVRFPREHQHFEDGD [F19H] gave a protein stability index of 2.39. AAPFRNVARPVRFPREHQFFEDGD [F6N] gave a protein stability index of 4.55. Variant AAPFRFVARRVRFPREHQFFEDGD [P10R] has a protein stability index of 1.8. With ARPFRFVARPVRFPREHQFFEDGD [A2R] the protein stability index was 1.93. In the case of AAPFRFVARPVRFPREHQFEEDGD [F20E], the protein stability index is reported as 2.52. Variant AAPFRFVARPVRFPREMQFFEDGD [H17M] has a protein stability index of 2.37. Work on AAPFRFVARPVRFPRNHQFFEDGD [E16N] yielded a protein stability index of 1.75. AAPFRTVARPVRFPREHQFFEDGD [F6T] gave a protein stability index of 4.03. AAPFRFVARPVRFPSEHQFFEDGD [R15S] gave a protein stability index of 2.48. Variant AAPFRFVARPVRFEREHQFFEDGD [P14E] has a protein stability index of 2.45. AAPFRFVARPVRFPREHQFFEHGD [D22H] showed a protein stability index of 2.54. AAHFRFVARPVRFPREHQFFEDGD [P3H] gave a protein stability index of 2.59. AAPFRFVARPVRFPREHKFFEDGD [Q18K] gave a protein stability index of 2.46. In the case of AAYFRFVARPVRFPREHQFFEDGD [P3Y], the protein stability index is reported as 2.47. AAPFRFVARPVAFPREHQFFEDGD [R12A] showed a protein stability index of 1.48. For AAPFRFVARYVRFPREHQFFEDGD [P10Y], the protein stability index was 2.59. AAPFRFVARPVRFAREHQFFEDGD [P14A] gave a protein stability index of 2.16. WAPFRFVARPVRFPREHQFFEDGD [A1W] showed a protein stability index of 2.31. AAPFRFVARPVRFPCEHQFFEDGD [R15C] gave a protein stability index of 2.03. For AAPFRFVARPVRFPREHQFFEDGN [D24N], the protein stability index was 2.88. In the case of RAPFRFVARPVRFPREHQFFEDGD [A1R], the protein stability index is reported as 1.93. AAPFRFVARPVRFSREHQFFEDGD [P14S] showed a protein stability index of 1.88. In the case of AAPFRFVARPVRFPREHQFFEDGL [D24L], the protein stability index is reported as 2.04. AAPFRFVARAVRFPREHQFFEDGD [P10A] gave a protein stability index of 1.96. AAPVRFVARPVRFPREHQFFEDGD [F4V] gave a protein stability index of 4.24. Work on FAPFRFVARPVRFPREHQFFEDGD [A1F] yielded a protein stability index of 3.42. With AARFRFVARPVRFPREHQFFEDGD [P3R] the protein stability index was 2.65. AAPFRFQARPVRFPREHQFFEDGD [V7Q] gave a protein stability index of 3.78. With AAPFRFVARPVRFPREHQFFWDGD [E21W] the protein stability index was 1.69. Variant AAPFRFVARPVEFPREHQFFEDGD [R12E] has a protein stability index of 1.97. For AAPFRFVARPVRFPREHQFFEDGY [D24Y], the protein stability index was 1.83. AAPFRFVGRPVRFPREHQFFEDGD [A8G] showed a protein stability index of 2.29. AACFRFVARPVRFPREHQFFEDGD [P3C] gave a protein stability index of 1.36. For AAPFRFVARPVRFPREHHFFEDGD [Q18H], the protein stability index was 1.7. With AAPFRFVARPVRFPREHQFFEDAD [G23A] the protein stability index was 2.29. For AAPFRFVARPVRFFREHQFFEDGD [P14F], the protein stability index was 2. Variant AAPFRFVARPVMFPREHQFFEDGD [R12M] has a protein stability index of 2.03. AAPFRFVARPVRFPREHQFCEDGD [F20C] gave a protein stability index of 2.95.
